Article PMC3404065

What was measured:
[1] = target: F-actin polymerised from purified G-actin (Cytoskeleton APHL99-A) (UniProt P60709); test: co-sedimentation; high-speed F-actin co-sedimentation; F-actin polymerised from Mg-ATP-G-actin (50 mM KCl, 1 mM MgCl2, 1 mM ATP); 30 min at room temperature, Airfuge ~100,000 x g 30 min; supernatant and pellet on SDS-PAGE, Coomassie Blue or silver stain
[2] = target: F-actin polymerised from purified G-actin (Cytoskeleton APHL99-A) (UniProt P60709); test: co-sedimentation; supernatant-depletion method, equilibrium binding to ATP/ADP-Pi-F-actin (filaments from ATP-G-actin); GST-ABD left in the supernatant by anti-GST immunoblot and densitometry; room temperature
[3] = target: F-actin polymerised from purified G-actin (Cytoskeleton APHL99-A) (UniProt P60709); test: co-sedimentation; supernatant-depletion method, equilibrium binding to ADP-F-actin (filaments from ADP-G-actin made with 20 U/mL hexokinase and 1 mM glucose); GST-ABD left in the supernatant by anti-GST immunoblot and densitometry

GST-TEM4 81-135 (GST-ABD) (from UniProt Q96PE2 81-135) (domain or fragment)
stoichiometry N ([1]; scale: actin per GST-ABD): 1.4
stoichiometry N ([1]; scale: ratio GST-ABD to actin, after correction for the 15-20% GST cleavage product): 1
Kd [2]: 0.053 µM
Kd [3]: 4.7 µM
